The source of these data is patent US20240401013.

In data set [1] the test system is PE-Bce integrase fusion (PASTE v4; printed Bcel). In words: cell_activity. The settings on record: PASTE v4 comparator, Hepa1c1c7; att sequences not given.
Data set [2] deals with PE-Bxb1 integrase fusion (PASTE v3; printed Bxbl). Put plainly: cell_activity. The settings on record: PASTE v3 comparator, Hepa1c1c7; att sequences not given.

On to Bce att sites (PASTE v4), for which, in data set [1], the activity (% mCherry-positive cells) is 0.5.
For Bxb1 att sites (PASTE v3), the activity (% mCherry-positive cells) in data set [2] amounted to 3.8.
